Results published in article PMC5766103 (PLoS ONE, 2018).
One block for each molecule: values may come before it.

Legend:
IL-17A = molecular target: T1, IL-17A (Homo sapiens, UniProt Q16552); assay: Surface plasmon resonance (BIAcore T200) binding of peptides to captured Avi-tagged IL-17A; conditions: 8°C, 50 μl/min, 10 mM HEPES pH 7.5, 150 mM NaCl, 0.005% P20, 3% DMSO; global fit, 1:1 binding model; read-out: SPR KD1
T1 construct: His-tag; Flag-tag; made in house; host or cells: Sf9 insect cells (baculovirus)

[1] = clinical trials, moderate to severe psoriasis; ref [7]–[9]; cited from earlier work
Description: Augmented expression of IL-17A is linked with various autoimmune disorders. Therefore, blocking activity of IL-17A has been of great therapeutic interest. Two approved antibody based therapeutics targeting IL-17A, Secukinumab and Ixekizumab, are currently being used for treatment of moderate to severe psoriasis. […] Moreover, current advanced clinical trials have shown promising results for treatment of ankylosing spondylitis and psoriatic arthritis ...

[2] = molecular target: the molecule itself; assay: crystal structure; IL-17A at 7.1 mg/ml with 2 mM peptide; crystals at 8°C in 20% PEG 3350, 200 mM lithium chloride; 1.6 Å
[3] = molecular target: Avi-tagged IL-17A (IL-17A molecule with a single biotin tag per dimer) (human) (UniProt Q16552); assay: SPR; Avi-tagged IL-17A (6000–9000 RU) captured on a streptavidin chip; peptides flowed at 50 μl/min; 8°C; 10 mM HEPES pH 7.5, 150 mM NaCl, 0.005% P20, 3% DMSO; global fit, 1:1 binding model
[4] = molecular target: Avi-tagged IL-17A (IL-17A molecule with a single biotin tag per dimer) (human) (UniProt Q16552); assay: AlphaScreen or HTRF; AlphaLISA competition: 2 nM IL-17RA-flag and 2 nM Avi-tagged IL-17A-His with peptide dilutions, 2 h at room temperature; streptavidin donor and anti-FLAG acceptor beads; 20 mM HEPES, 150 mM NaCl, 0.05% Tween-20, 0.1% HSA, pH 7, 1% DMSO; relative IC50, four parameter fit

- Kd (IL-17A): 1300 nM
Molecule: CSCC[C@@H]1NC(=O)[C@H](CC(=O)O)NC(=O)[C@H](Cc2ccc(O)cc2)NC(=O)[C@H](CCC(=O)O)NC(=O)[C@H](CC(C)C)NC(=O)[C@H](C(C)C)NC(=O)[C@H](Cc2c[nH]c3ccccc23)NC(=O)[C@@H](N)CSSC[C@@H](C(=O)N[C@@H](CCCNC(=N)N)C(=O)O)NC(=O)[C@H](Cc2c[nH]cn2)NC(=O)[C@H](CC(C)C)NC(=O)[C@H](C)NC(=O)CNC(=O)[C@H](Cc2ccccc2)NC1=O [18–902]

Molecule: Ixekizumab: approved antibody based therapeutic targeting IL-17A
- patient population with at least 75% reduction of disease severity (PASI75) [1]: 80%

Molecule: Secukinumab: approved antibody based therapeutic targeting IL-17A
- patient population with at least 75% reduction of disease severity (PASI75) [1]: 80%

B1: IL-17A residues 38–155 with the mutations N68D/C129S (ligand, human, UniProt Q16552 38-155, looked up)
chain: DKNFPRTVMVNLNIHNRNTNTNPKRSSDYYDRSTSPWNLHRNEDPERYPSVIWEAKCRHLGCINADGNVDYHMNSVPIQQEILVLRREPPHSPNSFRLEKILVSVGCTCVTPIVHHVA
notes: construct numbers and the two mutations count on the precursor protein; Crystallography construct
- binding result [2]: binds

- Kd [3]: 3870 nM
- koff [3]: 0.0528 s⁻¹
- kon [3]: 13700 M⁻¹ s⁻¹
- IC50 [4]: 1900 nM
B2: 18–913 (peptide)
peptide: CLDLQYDMFGALHCV
